Test system: peptide library, one residue held at a place counted from the Y acceptor
Test: relative phosphorylation of the sub-library (ratio to the mean residue at this position); higher = residue favoured
How it was run: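 Every value reflects phosphorylation relative to the mean randomized residue. The sum of the 18 randomized residues, or 16 in the Ser/Thr-free library, served to normalize intensities at each position, which were then multiplied by that number. Intensities came from phosphorimaging with ImageQuant of biotinylated Tyr-centred peptides captured on streptavidin membranes after 90 min with purified recombinant kinases and 50 μM ATP plus γ-32P-ATP.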

Chain of ROS1, construct: aa1883-end, human (P08922 1883-2347, looked up): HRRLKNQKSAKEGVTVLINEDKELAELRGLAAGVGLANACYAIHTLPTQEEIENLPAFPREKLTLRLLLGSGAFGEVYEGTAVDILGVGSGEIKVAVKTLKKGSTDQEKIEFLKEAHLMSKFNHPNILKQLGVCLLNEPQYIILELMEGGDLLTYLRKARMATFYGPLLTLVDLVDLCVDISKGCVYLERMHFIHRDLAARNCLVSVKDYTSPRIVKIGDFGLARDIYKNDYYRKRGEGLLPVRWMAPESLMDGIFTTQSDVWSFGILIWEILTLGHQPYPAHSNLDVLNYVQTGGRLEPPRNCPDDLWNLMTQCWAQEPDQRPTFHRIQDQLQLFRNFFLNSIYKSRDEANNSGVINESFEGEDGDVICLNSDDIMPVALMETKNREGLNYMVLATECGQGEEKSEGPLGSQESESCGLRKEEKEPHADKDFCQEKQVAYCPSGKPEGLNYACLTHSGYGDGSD

PTK6, construct: Full length, human (from UniProt Q13882)
relative phosphorylation
Settings	at +1	at +2	at +3	at +4	at +5	at -1	at -2	at -3	at -4	at -5
A fixed	0.945	0.766	0.805	0.972	0.852	0.665	0.982	0.951	1.08	1.03
D fixed	0.404	0.528	1.01	0.758	0.874	0.64	1.12	1.18	1.33	1.15
E fixed	1.42	0.424	0.846	0.904	0.956	0.542	1.27	1.79	1.39	1.17
F fixed	0.732	1.11	1.43	1.22	1.45	2.44	0.78	1.19	1.12	1.07
G fixed	1.13	0.736	1.32	1.11	1.02	0.288	1.28	0.942	1.12	1.07
H fixed	0.786	0.574	1.3	1.05	0.954	1.52	1.18	1.04	1.04	0.925
I fixed	1.23	1.12	0.957	0.798	1.12	3.11	0.824	0.81	0.822	0.888
K fixed	0.652	0.804	0.718	0.949	0.775	0.283	0.529	0.728	0.697	0.917
L fixed	0.869	1.47	0.689	0.813	1.06	1.62	0.881	0.879	0.919	0.99
M fixed	1.02	1.51	0.755	1.09	1.08	0.805	0.702	0.867	0.843	0.948
N fixed	0.91	1.04	0.812	0.784	0.878	0.587	1.17	1.25	1.22	1.11
P fixed	0.223	1.1	0.995	1.35	1.36	0.774	0.976	0.869	1.11	1.1
Q fixed	1.32	0.607	0.763	1.01	0.75	0.43	0.998	0.811	0.977	0.995
R fixed	1.07	1.12	0.985	1.17	0.853	0.261	0.631	0.86	0.821	0.997
S fixed	1.24	0.902	0.97	0.871	0.837	0.418	1.2	0.962	0.833	0.863
T fixed	1.64	0.587	0.732	0.72	0.818	0.83	0.814	0.84	0.637	0.778
V fixed	1.48	0.616	0.863	0.884	0.898	1.43	0.855	0.705	0.742	0.632
W fixed	0.938	2.98	2.04	1.55	1.46	1.35	1.81	1.33	1.3	1.38
pThr fixed	0.711	0.441	0.759	0.797	0.891	0.57	0.79	0.848	0.878	1.08
pTyr fixed	1.06	0.75	1.06	1.28	1.08	3.6	1.01	1.21	1.15	1.14

ROS1, construct: aa1883-end, human (from UniProt P08922)
relative phosphorylation
Settings	at +1	at +2	at +3	at +4	at +5	at -1	at -2	at -3	at -4	at -5
A fixed	1.4	0.764	0.709	0.96	0.93	1.04	1.06	0.892	1.22	1.17
D fixed	0.482	0.396	0.211	0.611	0.583	1.09	0.882	0.994	1.09	0.993
E fixed	0.947	0.547	0.174	0.772	0.512	1.09	1.1	1.04	1.18	0.873
F fixed	1.06	1.19	1.65	1.19	1.47	0.882	0.738	0.932	0.878	0.868
G fixed	0.696	0.581	0.722	1.09	1.1	0.835	1.2	1.2	1.36	1.31
H fixed	1.07	0.954	1.67	1.13	0.93	1.21	1.07	1.09	0.888	0.99
I fixed	1.33	0.963	1.57	0.865	0.776	1.11	0.797	0.727	0.827	0.878
K fixed	0.501	1.3	0.858	1.27	1.3	0.592	1.01	0.968	1.04	1.08
L fixed	1.37	1.41	1.49	0.918	0.831	1.33	0.872	0.863	0.995	0.882
M fixed	1.36	1.17	1.33	1.07	0.873	0.975	0.733	0.828	0.855	0.922
N fixed	0.551	1.04	0.581	0.88	0.981	1.29	1.1	1.2	0.935	1.05
P fixed	0.446	0.904	0.532	0.972	1.64	1.45	1.29	1.23	1.19	1.24
Q fixed	1.09	0.94	0.669	1.14	0.958	0.964	1.16	0.915	1.11	0.963
R fixed	0.649	1.31	1.07	1.31	1.25	0.533	1.1	1.09	0.982	1.12
S fixed	1.26	1.01	0.793	0.979	1.2	0.975	1.18	1.17	0.898	0.967
T fixed	1.25	0.937	0.922	0.87	0.894	0.906	1.02	1.07	0.724	0.93
V fixed	1.42	1.08	1.27	0.988	0.622	0.976	0.906	0.824	0.859	0.879
W fixed	1.1	1.5	1.77	0.989	1.16	0.762	0.774	0.976	0.972	0.891
pThr fixed	0.802	0.447	0.162	0.305	0.359	0.848	0.859	0.877	0.86	0.871
pTyr fixed	1.06	0.646	0.306	0.529	0.409	1.74	1.03	1.15	1.09	0.896

From the supplement of paper PMC11136658
